Assay results published in US20160279215A1, “NOVEL PEPTIDES AND COMBINATION OF PEPTIDES FOR USE IN IMMUNOTHERAPY AGAINST VARIOUS TUMORS” (immatics biotechnologies GmbH, priority 2015, published 2016).

Target: T1, HLA-A*02:01 (human)
T1 construct: MHC monomers captured on streptavidin plates; the UV-sensitive peptide is cleaved and exchanged with the test peptide; also called peptide-receptive MHC molecules; MHC class I
Assay: UV ligand-exchange ELISA (anti-b2m); +++ = exchange yield >=50
Text: Candidate peptides for T cell based therapies according to the present invention were further tested for their MHC binding capacity (affinity). The individual peptide-MHC complexes were produced by UV-ligand exchange, where a UV-sensitive peptide is cleaved upon UV-irradiation, and exchanged with the peptide of interest as analyzed. Only peptide candidates that can effectively bind and stabilize the peptide-receptive MHC molecules prevent dissociation of the MHC complexes. To determine the yield of the exchange reaction, an ELISA was performed based on the detection of the light chain (β2m) of stabilized MHC complexes. The assay was performed as generally described in Rodenko et al. (Rodenko et al., 2006).
96 well MAXISorp plates (NUNC) were coated over night with 2 ug/ml streptavidin in PBS at room temperature, washed 4× and blocked for 1 h at 37° C. in 2% BSA containing blocking buffer. Refolded HLA-A*02:01/MLA-001 monomers served as standards, covering the range of 15-500 ng/ml. Peptide-MHC monomers of the UV-exchange reaction were diluted 100 fold in blocking buffer. Samples were incubated for 1 h at 37° C., washed four times, incubated with 2 ug/ml HRP conjugated anti-β2m for 1 h at 37° C., washed again and detected with TMB solution that is stopped with […]. Absorption was measured at 450 nm. […]

SLTGANITV was tested, and the peptide exchange yield was 50 to 75%.
